Experimental data reported in the supplement of paper PMC11246515.
± gives the standard deviation of the averaged measurements.

Assay: total protein half-life in vivo (active degradation + dilution); higher = more stable protein
[1] = E. coli NCM3722 delta-clpP delta-lon delta-hslV, growth: N-lim chemostat, doubling time 6 h
[2] = E. coli NCM3722 delta-clpP, growth: N-lim chemostat, doubling time 6 h
[3] = E. coli NCM3722 delta-hslV, growth: N-lim chemostat, doubling time 6 h
[4] = E. coli NCM3722 delta-smpB, growth: N-lim chemostat, doubling time 6 h
[5] = wild type E. coli NCM3722, growth: C-lim chemostat, doubling time 3 h
[6] = wild type E. coli NCM3722, growth: C-lim chemostat, doubling time 6 h
[7] = wild type E. coli NCM3722, growth: C-lim chemostat, doubling time 12 h
[8] = wild type E. coli NCM3722, growth: N-lim chemostat, doubling time 6 h
[9] = wild type E. coli NCM3722, growth: N-lim chemostat, doubling time 12 h
[10] = wild type E. coli NCM3722, growth: P-lim chemostat, doubling time 6 h
[11] = wild type E. coli NCM3722, growth: P-lim chemostat, doubling time 12 h
[12] = E. coli NCM3722 delta-lon, growth: N-lim chemostat, doubling time 6 h

| Sequence | total protein half-life in vivo [1] | total protein half-life in vivo [2] | total protein half-life in vivo [3] | total protein half-life in vivo [4] | total protein half-life in vivo [5] | total protein half-life in vivo [6] | total protein half-life in vivo [7] | total protein half-life in vivo [8] | total protein half-life in vivo [9] | total protein half-life in vivo [10] | total protein half-life in vivo [11] | total protein half-life in vivo [12] |
| --- | --- | --- | --- | --- | --- | --- | --- | --- | --- | --- | --- | --- |
| MKKKTTLSEEDQALFRQLMAGTRKIKQDTIVHRPQRKKISEVPVKRLIQEQADASHYFSDEFQPLLNTEGPVKYVRPDVSHFEAKKLRRGDYSPELFLDLHGLTQLQAKQELGALIAACRREHVFCACVMHGHGKHILKQQTPLWLAQHPHVMAFHQAPKEYGGDAALLVLIEVEEWLPPELP [P0A8B2] | 3.99 ± 0.33 h | 2.898 ± 0.019 h | 3.03 ± 0.56 h | 3.68 ± 0.36 h | 2.46 ± 0.48 h | 3.84 ± 0.16 h | 5.34 h | 2.99 ± 0.086 h | 3.87 ± 0.36 h | 3.06 ± 0.1 h | 6 ± 0.6 h | – |
| MVSETKTTEAPGLRRELKARHLTMIAIGGSIGTGLFVASGATISQAGPGGALLSYMLIGLMVYFLMTSLGELAAYMPVSGSFATYGQNYVEEGFGFALGWNYWYNWAVTIAVDLVAAQLVMSWWFPDTPGWIWSALFLGVIFLLNYISVRGFGEAEYWFSLIKVTTVIVFIIVGVLMIIGIFKGAQPAGWSNWTIGEAPFAGGFAAMIGVAMIVGFSFQGTELIGIAAGESEDPAKNIPRAVRQVFWRILLFYVFAILIISLIIPYTDPSLLRNDVKDISVSPFTLVFQHAGLLSAAAVMNAVILTAVLSAGNSGMYASTRMLYTLACDGKAPRIFAKLSRGGVPRNALYATTVIAGLCFLTSMFGNQTVYLWLLNTSGMTGFIAWLGIAISHYRFRRGYVLQGHDINDLPYRSGFFPLGPIFAFILCLIITLGQNYEAFLKDTIDWGGVAATYIGIPLFLIIWFGYKLIKGTHFVRYSEMKFPQNDKK | – | > 8 h | – | 6.44 h | – | > 8 h | > 16 h | 6.92 h | – | 6.22 h | 8.87 h | 5.36 h |
| MKITLSKRIGLLAILLPCALALSTTVHAETNKLVIESGDSAQSRQHAAMEKEQWNDTRNLRQKVNKRTEKEWDKADAAFDNRDKCEQSANINAYWEPNTLRCLDRRTGRVITP | 6.01 ± 0.36 h | – | 4.407 ± 0.012 h | 4.06 ± 0.71 h | – | 5.07 ± 0.96 h | 7.11 ± 3.5 h | 4.93 ± 0.28 h | 11 ± 1.8 h | 5.78 ± 0.18 h | 12.4 ± 0.79 h | 5.55 ± 1.8 h |
| MPHNPIRVVVGPANYFSHPGSFNHLHDFFTDEQLSRAVWIYGKRAIAAAQTKLPPAFGLPGAKHILFRGHCSESDVQQLAAESGDDRSVVIGVGGGALLDTAKALARRLGLPFVAVPTIAATCAAWTPLSVWYNDAGQALHYEIFDDANFMVLVEPEIILNAPQQYLLAGIGDTLAKWYEAVVLAPQPETLPLTVRLGINNAQAIRDVLLNSSEQALSDQQNQQLTQSFCDVVDAIIAGGGMVGGLGDRFTRVAAAHAVHNGLTVLPQTEKFLHGTKVAYGILVQSALLGQDDVLAQLTGAYQRFHLPTTLAELEVDINNQAEIDKVIAHTLRPVESIHYLPVTLTPDTLRAAFKKVESFKA | 4.77 ± 0.33 h | 4.6 ± 0.098 h | 4.1 ± 0.11 h | 4.21 ± 0.15 h | 2.67 ± 0.1 h | 5.28 ± 0.084 h | 9.15 ± 1.6 h | 4.38 h | 7.78 h | 5.64 ± 0.28 h | 11.2 ± 0.17 h | 4.91 ± 0.17 h |
| MNGTIYQRIEDNAHFRELVEKRQRFATILSIIMLAVYIGFILLIAFAPGWLGTPLNPNTSVTRGIPIGVGVIVISFVLTGIYIWRANGEFDRLNNEVLHEVQAS [P0AF54] | – | – | – | – | – | 5.84 ± 0.1 h | 8.72 ± 0.83 h | – | – | – | – | – |
| MFKKGLLALALVFSLPVFAAEHWIDVRVPEQYQQEHVQGAINIPLKEVKERIATAVPDKNDTVKVYCNAGRQSGQAKEILSEMGYTHVENAGGLKDIAMPKVKG | – | – | – | 2.61 h | 1.97 ± 0.051 h | 2.89 h | 3.42 ± 0.39 h | – | – | – | 3.19 h | 2.7 ± 0.26 h |
| MTTQYGFFIDSSRCTGCKTCELACKDYKDLTPEVSFRRIYEYAGGDWQEDNGVWHQNVFAYYLSISCNHCEDPACTKVCPSGAMHKREDGFVVVDEDVCIGCRYCHMACPYGAPQYNETKGHMTKCDGCYDRVAEGKKPICVESCPLRALDFGPIDELRKKHGDLAAVAPLPRAHFTKPNIVIKPNANSRPTGDTTGYLANPKEV | 5.26 h | – | – | – | – | 6.7 h | – | – | – | – | – | – |
| MSEKPLTKTDYLMRLRRCQTIDTLERVIEKNKYELSDNELAVFYSAADHRLAELTMNKLYDKIPSSVWKFIR [P0ACE3] | 2.93 h | – | – | – | – | 1.69 ± 0.43 h | 0.865 h | – | – | – | – | – |
| MTIYTLSHGSLKLDVSDQGGVIEGFWRDTTPLLRPGKKSGVATDASCFPLVPFANRVSGNRFVWQGREYQLQPNVEWDAHYLHGDGWLGEWQCVSHSDDSLCLVYEHRSGVYHYRVSQAFHLTADTLTVTLSVTNQGAETLPFGTGWHPYFPLSPQTRIQAQASGYWLEREQWLAGEFCEQLPQELDFNQPAPLPRQWVNNGFAGWNGQARIEQPQEGYAIIMETTPPAPCYFIFVSDPAFDKGYAFDFFCLEPMSHAPDDHHRPEGGDLIALAPGESTTSEMSLRVEWL | 6.63 h | – | – | – | 0.925 h | – | 10.7 h | – | – | 6.42 h | 11.3 ± 0.92 h | – |
| MGSPSLYSARKTTLALAVALSFAWQAPVFAHGGEAHMVPMDKTLKEFGADVQWDDYAQLFTLIKDGAYVKVKPGAQTAIVNGQPLALQVPVVMKDNKAWVSDTFINDVFQSGLDQTFQVEKRPHPLNALTADEIKQAVEIVKASADFKPNTRFTEISLLPPDKEAVWAFALENKPVDQPRKADVIMLDGKHIIEAVVDLQNNKLLSWQPIKDAHGMVLLDDFASVQNIINNSEEFAAAVKKRGITDAKKVITTPLTVGYFDGKDGLKQDARLLKVISYLDVGDGNYWAHPIENLVAVVDLEQKKIVKIEEGPVVPVPMTARPFDGRDRVAPAVKPMQIIEPEGKNYTITGDMIHWRNWDFHLSMNSRVGPMISTVTYNDNGTKRKVMYEGSLGGMIVPYGDPDIGWYFKAYLDSGDYGMGTLTSPIARGKDAPSNAVLLNETIADYTGVPMEIPRAIAVFERYAGPEYKHQEMGQPNVSTERRELVVRWISTVGNYDYIFDWIFHENGTIGIDAGATGIEAVKGVKAKTMHDETAKDDTRYGTLIDHNIVGTTHQHIYNFRLDLDVDGENNSLVAMDPVVKPNTAGGPRTSTMQVNQYNIGNEQDAAQKFDPGTIRLLSNPNKENRMGNPVSYQIIPYAGGTHPVAKGAQFAPDEWIYHRLSFMDKQLWVTRYHPGERFPEGKYPNRSTHDTGLGQYSKDNESLDNTDAVVWMTTGTTHVARAEEWPIMPTEWVHTLLKPWNFFDETPTLGALKKDK | 4.75 h | – | – | 5.04 ± 0.69 h | 2.69 h | 6.4 ± 0.067 h | 6.83 h | – | 11.8 h | – | 11.1 ± 0.71 h | – |
| MNLLTVSTDLISIFLFTTLFLFFARKVAKKVGLVDKPNFRKRHQGLIPLVGGISVYAGICFTFGIVDYYIPHASLYLACAGVLVFIGALDDRFDISVKIRATIQAAVGIVMMVFGKLYLSSLGYIFGSWEMVLGPFGYFLTLFAVWAAINAFNMVDGIDGLLGGLSCVSFAAIGMILWFDGQTSLAIWCFAMIAAILPYIMLNLGILGRRYKVFMGDAGSTLIGFTVIWILLETTQGKTHPISPVTALWIIAIPLMDMVAIMYRRLRKGMSPFSPDRQHIHHLIMRAGFTSRQAFVLITLAAALLASIGVLAEYSHFVPEWVMLVLFLLAFFLYGYCIKRAWKVARFIKRVKRRLRRNRGGSPNLTK [P0AC78] | – | 6.35 h | 5.89 ± 0.39 h | 5.8 ± 0.18 h | 3.68 ± 0.28 h | 5.75 h | 11.8 ± 2.3 h | 6.03 h | 10.4 h | 6.33 ± 0.36 h | – | 5.27 ± 0.83 h |
